B1: soluble BCMA (B-cell maturation antigen) (receptor)
chain: MLQMAGQCSQNEYFDSLLHACIPCQLRCSSNTPPLTCQRYCNASVTNSVKGTNA

How the values were obtained:
Test in all cases: SPR
[1] = target: B1
[2] = target: B1
bb2121 (C11D5.3) = target: bb2121 (C11D5.3)

Binder | Kd [1] [nM] | koff [2] [s⁻¹] | Kd (bb2121 (C11D5.3)) [nM] | koff (bb2121 (C11D5.3)) [s⁻¹]
APRIL (a proliferating ligand), IgG2a Fc conjugated binder (Fc fusion) SVLHLVPINATSKDDSDVTEVMWQPALRRGRGLQAQGYGVRIQDAGVYLLYSQVLFQDVTFTMGQVVSREGQGRQETLFRCIRSMPSHPDRAYNSCYSAGVFHLHQGDILSVIIPRARAKLNLSPHGTFLGFVKL | 3.7 | 0.00393 |  | 
B1 |  |  | 0.328 | 0.00155

Reference: publication PMC10314698 (2023)
